experiment: yeast display, Sf9 membrane polyspecificity reagent, FACS + sequencing; frameworks hold sequencing errors
In short: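 After 36–48 hours of galactose induction, yeast (Saccharomyces cerevisiae BJ5465) displaying a synthetic nanobody library were stained at 4 °C for 1 hour with 10% biotinylated, detergent-solubilized Sf9 membrane reagent. Streptavidin microbeads enriched the stained cells before FACS sorting into low and high (top ~1%) gates on anti-HA and streptavidin fluorescence. Each clone's polyreactivity label reflects its gate of origin.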

Sequence | polyreactivity (PSR sort gate)
QVQLVESGGGLVQAGGSLRLSCAASGFTFTLNAMGWYRQAPGKERELVAGISSGGSTNYADSVKGRFTISRDNAKNTVYLQMNSLKPEDTAVYYCAADRGYVWRYDYWGQGTQVTVSS | low polyreactivity
QVQLVESGGGLVQAGGSLRLSCAASGSIFGSYTMGWYRPAPGKERELVAAITSGGGNTYYADSVKGRFTISRDNAKNTVYLQMNSLKPEDTAVYYCAARERYTGYGSWGQGTQVTVSS | high polyreactivity
QVQLVESGGGLVQVGGSLRLSCAASGITLSYYAMGWYRQAPRKERELVASITVSRTSTYYADSVKGRFTISRDNAKNTVYLQMNSLKPEDTEVYYCNADGDHPYRRNDYWGQGTQVTVSS | low polyreactivity
QVQLVESGGGLVQAGGSLRLSCAASGSTFRDNVMGWYRQAPGKEWEFVAAISSSVGSTYYADSVKGRFTISRDNAKNTVYLQMNSLKPEDTAVYYCAARLWPSYLSYGKTGDYWGQGTQVTVSS | high polyreactivity
QVQLQESGGGLVQAGGSLCLSCAASGTIFFDGDMGWYRQAPGKEREFVAAINPGGSAYNADSVKGRLPLAAITHTVYLQMNSLKPEDTAVYYCSAKLFDVYGYYYWGQGTHVTVSS | low polyreactivity
QVQLVESGGGLVQAGGSLRLSCAASGRNFWYYAMGWYRQAPGKERELVAGITYGDGSTYYADSVKGRFTISRDNAKNTVYLQMNSLKPEDTAVYYCAVDLRSYWFRYGFDYWGQGTQVTVSS | low polyreactivity
QVQLVESGGGLVQAGGSLRLSCAASGSPFTRYTMGWYRHAPGKERELVASITRTGSTNYADSVKGRFTISRDNAKNTLYFQMNSLKPEDTAVYYCAAGRYYSYRFSFGYWGQGTQVTVSS | high polyreactivity
QVQLVESGGGLVQAGGSLRLSCAASGSTFPKYAMGWYRQAPGKERELVASISVTTGSTYYADSVKGRFTISRDNAKNTVYLQMNSVKPEDTAVYYCAARRGWGDDYWGQGTQVTVSS | high polyreactivity
QVQLVESGGGLVQAGGSLRLSCAASGRIIWKNTMGWYRQAPGKERELVAAITYGGSTNYADSVKGRFTISRDNAKNTVYLQMNSLKPEDTAVYYCNAQISWDSGWGYSYHLDYWGQGTQVTVSS | low polyreactivity
KVQLVESGGGLVHAGGSLRLSCAASGRTLYTNAMGWYRQAPGTERELVAAITSGASTNYADSVKGRFTISRDNAKNTVYLQMNSLKPEDTAVYYCAARTDHLWNARRYDYWGQGTQVTVSS | low polyreactivity
QVQLVESGGGLVQAGGSLRLSCAASGLIFLGNAMGWYRQAPGKERELVAAISRSGGTTYYADSVKGRFTISRDNEKNTVYLQMNSLKPEDTAVYYCNAYNPYYRATVSSRGYGYWGQGTQVTVSS | high polyreactivity
QVQLVDSGGGLVQAGGSLRLSCAASGRIFSENAMVWYRQSRGKERELVAAITANGGDTYYADSVKGRFTISRDNAKNTVYLQMNSLKPEDTAVYYCAAETGGLGGDYWGQGTQVTVSS | low polyreactivity
QVQLVESGGGLVQAGGSLRLSCAASGMIFKFYDMGWYRQAPGKEREWVASISWSGGRTYYADSVKGRFTISRDNAKNTVYLQMNSLKPEDTAVYYCAAGRYYGYGYWGQGTQVTVSS | high polyreactivity
QLHLVESGGGLVQAGGSLRLSCAASGRSFGLNALGRSRQAHGKERELVAVISFGDGGTYYADSVKGRFTISLDNAKNTVYLQMNSLKPEDTAVYYCATDYQSTSVWGGHFVINPYDYWGQGTKVTVSS | low polyreactivity
QVQLVESGGGLVQAGSSLRLSCAASGSTFVNNAMGWYRQAPGKERELVAAITSGGSTNYADSVKGRFTISRDNAKNTVYLQMNSLKPEDTAVYYCNADGDSWYTGIPAVSHGYWGQGTQVTVSS | low polyreactivity
QVQLVESGGGLVQAGGSLRLSCAASGSIFRRYAMGWNRQAPGKERELVAYISRSGGSTYYADSVKGRFTISRDNAKNTVYLQMNRLKPEDTAVYYCAAQRYRTGDSWGQGTQVTVSS | high polyreactivity
QVQIGESGGGLVQAGGSLRLSCAASGRTFGLYAMGWYRQAPGKERELVAAITISGGITHYADSVKGRFTISRDIAKNSVYLQMNSLKPEDTAVYYCAAEPPGFRTSGVGYWGQGTQVTVSS | low polyreactivity
QLQLVESGGGLVQARGSLRLICADSGRIFTSYTMGWYRQAPGKERELVAAIDWSGGTTYYADSVKGPFTISRDNAKNTVYFQMISLKPEDTAVYYCSALYVIVGYYTYEYWGQGTQVTVSS | low polyreactivity
QVQLVESGGGLVQAGGSLRLSCAASGRIFRDNAMGWYRQAPGKERELVAAISRRGGSTYYADSVKGRFTISRDNAKNTVYLQMNSLKPEDTAVYYCNKTTQSRTFRYDYWGQGTQVTVSS | low polyreactivity
HGQLVESGGGLVQAGGSLRLSCAASGRTFRYYAMGWYREAPGKERELVAAITGSGGSTYYADSVKGRFTISRDNAQNTVYLQMNSLKPEDTAVYYCATRWALRWRGGYWGQGTQVTVSS | high polyreactivity
QVQLVESGGGLVQAGRSLRLSCAASGRTFPYNAMGWYRQAPGKESELVAAITSGGTTNYADSVKGRFTISRDNAKSTVYLQFNRLKPEDTAVYYCAADSDASSQFRRDYWGQGSQVTVSS | low polyreactivity
QVQLVESGGGLVQAGGSLRLSCAASGSIFVSNAMGWSRQAPGKERELVAAITRSGGSTYYADSVKGRFTISRDNAKNTVYLQMNCLKPEDTAVYYCAAATYRYGYGYWGQGTQVTVSS | high polyreactivity

Sequence | polyreactivity (PSR sort gate)
QVHLVESGGGLVQAGGSLRLTCAASGSIFAYYTMGWYRQEPGKERELVAAISRTGTSTFYADSVKGRFTISRDNAKNTVDLQMNSLKPEDTSVYYCIAVAPGKYNHWGQGTQVTVSS | high polyreactivity
QVQLVESGGGLVQAGGSLRLSCAASGSTFITYAMGWYRQAPGKERELVAAIRWSGGGTYYADSVKGRFTISRDTAKNTVYLQMNSLKPEDTAVYYCAADHFNYTTGRDYWGQGTQVTVSS | low polyreactivity
QVQLVESGGGLVQAGGSLRLSCAASGRIFDLYTMGWYRQAPGKERELVAAIRWSDGSTYYADSVKGRFTISRDNAKNTVYLQMNSLKPEDTAVYYCAADSRTSYYNDDYDYWGQGTQVTVSS | low polyreactivity
QGQLVESGGGLVQAGGSVRLSCAASRITLGSNAMGWDRQAPGKERELVAAITSGSSTYYADSVKGRFTISRDNAKNTVNLQMNSLKPEDTAVYYCAADPTSYSYEYNYWGQGTQVTVSS | low polyreactivity
QVQLVESGGGLVQAGGSLRLSCAASGSNFTANAMGLYRQAPGKEREMVADISTGGSTKYADSVKGRFTISRDNAKNTVYLEMNSLKPEDTAVYYCAARSRWARGSAIRGFWGQGTQVTVSS | high polyreactivity
QVQHVESGGGLVQAGGSLRLSCAASGRTLYRYAMGWSRQAPRKERELVAAIRSGGRTNYADSVKGRFTISRDNAKNTVYLQMNSLKPEDTAVYYCAARTLRYPSTFEYWGQGTQVTVSS | high polyreactivity
QVQLVESGGGLVQAGGSLRLSCADSGFTFTYYAMGWYRQAPGKERELVAGITRSGGSTYYADSVKGRFTISRDTAKNTVYLQMNSLKPEDTAVYYCAVKFVRYRQGIVLYDYWGQGTQVTVSS | high polyreactivity
QVQLVESGGGLVQAGGSLRLSCAASGLTFYYYAMGWYRQAPGKERELVASITKRGGSTYYADSVKGRFTISRDNAKNTVYLQMNSLKPEDTAVYYCAAQYRSQGQPKGGVLYYYWGQGTQVTVSS | high polyreactivity
QVQLVESGGGLVQAGGSLRLSCAASGSTFWANAMGWYRPAPGKERELVAGITWNAGSTYYADSVKGRFTISRDNAKNTVYLQMNSLKPEDTAVYYCAAYYHFQGWGPGYNSWGQGTQVTVSS | low polyreactivity
QVQLVESGGALVQAGGSLRLSCAASGITFAYYAMGWYRQAPRKERELVASIRTGGSTYYADSVKGRFTISRDNAKNTVYLQMNSLKPEYTAVYYCARRYRTPYDYWGQGTQVTVSS | high polyreactivity
QVQLQESGGGLVQAGGSLRLSCAASGTISDSGLMGWYRQAPVKERELVAGIRSGGITNYADSVKGRFTISRDNAKNTVYLQMNSLKPEDTAVYWGQGTQVTVSS | low polyreactivity
QVQLVESGGGLVQAGGSLRLSCAASGLTFLYYAMGWYRQAPGKERELVAAITGSGGTTNYADSVKGRFTISRDNAKNTVYLQMNSLKPEDTAVYYCAARGRKYYTSLGYYYWGQGTQVTVSS | high polyreactivity
QVQLVESGVGLVQAGGSLRLSCAASGITLYNYAMGWYRHAPGKERELVAAISLSGGRTYYADSVKGRFTISRDNAKNTVYLQMNSLKPEDTAVYYCAADWLNSDPYNYWGQGTQVTVSS | low polyreactivity
QVQLVESGGGLVQAGGSLRLSCAASGRIFVKNAMGWYRQAPGKERELVAGISRGGSTYYADSVKGRFTISRDNAKNTVYLQMYSLKPEDTAVYYCATRNYGRGQFDYWGQGSQVTVSS | high polyreactivity
QVQLVESGGGLFQAGGSLRLSCAASGRTFGIYAMRWYRQAPGKERELVATISWRGGSTYYADSVKGRFTISRDNAKNTVDLQMNSLKPEDTAVYYCAAVLTALSPDFEYEYWGQGTQVTVSS | low polyreactivity
QVQLVESGGGLVQAGGSLRLSCAASGRIFTGYAMGWYRQAPGKERELVAAISRGGSTNYADSAKGRFTISRDNAKNTVYLQLNSLKPEDTAVYYCAAGVHWDRGDYWGQGTQVTVSS | low polyreactivity
QVQLVESGGGLVQAGGSLRLSCPASGHIFDYNALGWYRQAPGKERELVAAITSGGTTTYADSVKGRFTISRDNAKHTVYLQMNSLKPEDTAVYYCARKRYFGGWSRYGYGYWGQGTQVTVSS | high polyreactivity
QVQLVESGGGLVQAGGSLRLSCAASGSTIRSNAMGWYRQAPGKERELVAAISRTGGRTYYADSVKGRFTISRDNAKNTVYLQMNSLKPEDTAVYYCARPDKRLEYSENYYWGQGTQVTVSS | high polyreactivity
QVQLVESGGGLVQAGGSLRLSCAASGLTFYEYAMGWYTQAPGKERELVAAITASGGSTYYADSVKGRFTISRDNAKNTVYLQMNSLKPEDSAVYYCAAVDYVRYYPDEFDYWGQGTQVTVSS | low polyreactivity
QVQLVESGGGLVQAGGSLRLSCAASGRIFTRNTMGWYRQAPGKERELVAAISGRGGSTYYADSVKGRFTISRDNAKNTVYLQMNSLKPEDTAVYYCAADGVYRGGYDYWGQVTQVTVSS | high polyreactivity
QVQLVESGGGLVQAGGILRLSCAASGRTFGRNAMGWYRQAQGKERELVAGISIGGGTTYYADSVKGRFTISRDNAKNTVYLQMNSLKPEDTAVYYCAARSWSYLHRYGYWGQGTLVTVSS | high polyreactivity

— the nanobody polyreactivity screen of Harvey et al. (2022)
